Reference: the DeepSol protein solubility set

Assay: soluble on expression in E. coli; label from the status in PepcDB or PDB records

Soluble on expression in E. coli, not soluble:
MGSDKIHHHHHHMENTIYLSSAYLAPVEYYTKLFACEKAYVEQYDNYVKQTYRNRCVIAAADGPLALTIPTEKSGTPKCLMKDVRISDHGNWRHIHWNALVAAYRNSPFFEYYADDFHVFYEKKYAFLWDYNQEICSLVCDLIDIHPHMEGTTEYCMEFVPGEVDFRETIHPKRDWREADADFCPKPYYQVFDAKYGFLPNLSIADLLFNMGPESLIVLRDSVKGINHKE, MGSDKIHHHHHHMEPEILFRKIDDLGEGPTYDERRKRVYWVDIRGKKFHYLSLENSEMKTFQSIGMISSIVPTDRDLMAATVDHGLYLIDDAGKHTLLTEVEKDQKSTRFNDGKADPFGNYVAGTMDLEEKRPIGSLYVLTGKTIRRILENLTISNGIAWNTKKKVFYHIDTPKRRVDAYSYDGKMNIERLGTAVDFRNEVGNPDGMTIDADGNLWVAHWGGNRITIHDPERQKKIDEIIFPAQNITSCVFAGNGLRDLYVSSASNGNPDDMGGSLFVVHTDYAGSKTFTFSVP, MGSDKIHHHHHHMEPIVRLENVTKNYRGVPAVKNVSFDLRKGEIHALLGENGAGKSTLTKIIAGVVDATSGKMFHKGREIAYASPHAALEAGIAMVFQETSLVPSMTVAQNLYLGTEKFLNRLRGTYIAAQQFLQSLNFPVDPNAMVATLGAAKRQMVEIARAVHHNAEIIIFDEPTATLTPEEKRHFFALIRRLKASGVSIVFISHALEEALAIADRITILRDGELVITDDTSAFDRDKIVAAMVGRTLSGQIYRQRDEARLRKAGKKVLSVQDISMSNVVRNNSFSIFEGQITGVFGLIGSGRTETFKIVSGIYKRDFLRGGAIELDDRPVRYLVPSEAVADGIVYVTEDRKSEGIFETMGIAENLFGGLLAAGREKAWVINQQEMRQLSAQWTKTLNIKAINDNARVVELSGGNQQKVVIGKGLVQQPRIVIFDEPTRGVDVGAIAEIHQIINRLADEGLAVVVISSYLPEIMNLSDRILVCRQGRIVEEYSPAEATEEKIMYAAVH, MGSDKIHHHHHHMEQDDKKLFVLDTNVLLHEPLAIYSFKEHDVVVPMTVLEELDQIKDRKRDVSRDARVAIRALEDILGGQTTPEEIVSGVPLPKREGHGDAVGSLSIFPDHQLEFTQASLPGDNNDNRIINTALHLQNQFAPRHVVLVTKDINMRLKAKGAGINLVEDYRTDQLIDDIRFLTKGFHQFEGDFWARKEHVNTETQGRHTVHRVPVKEVGEENFYTNQYLIDEDSNFCGRVLSNNDEELEILDLGRDRLLNLDAWGIKPKNVYQGMAMQALLDPDIDLVILTGPAGCGKTLLAMAAALEMVVERGLYDKVIVTRNTPEIAESIGFLPGTEEEKMAPWLAAITDTLEVLHKHDVNPSGSMNYIMDKANIQFKSINFMRGRSIQNSVVLLDECQNLTASQIKTMITRMGEGTKLICSGNLAQIDSNYLTAVTSGLTYIVERFKNFDGSANIYLNGVVRSRLAEFAEENL, MGSDKIHHHHHHMEQSMRKKNNNQINIVLNHRKKISLPAAENKTVISSETTTKHEMLQRIEEEMGKLVGMDDIKKIIKEIYAWIYVNKKRQEIGLKSEKQVLHMLFKGNPGTGKTTVARMIGKLLFEMNILSKGHLVEAERADLVGEYIGHTAQKTRDLIKKAMGGILFIDEAYSLARGGEKDFGKEAIDTLVKHMEDKQHGFVLILAGYSREMNHFLSLNPGLQSRFPFIIEFADYSVNQLLEIGKRMYEEREYQLSKEAEWKFRDHLHAVKYSSQITSFSNGRYVRNIVEKSIRTQAMRLLQEDAYDKYDLIGISSSDLMLEEETHST, MGSDKIHHHHHHMESIVSWPKPRGLARHSGRKAMSSLSSLARIALSLSLPSGLLDRGPSLRGTKFLAKAALKARFGGASQPFQMVNVGACDGALFDDVTPWLHRIAGARAMLVEPIPYNQKRLRANYPDKERFIIEPVAVTKTKGTITVHTFDAAALEAGTLPIEFIGCSSVTDTNLMSGKNAWGEADANFNKFAPHLRDIEVPSETLQTLLDRNGISHIDAFLVDCEGADWMVFEQLDLKRYRPGLIKVEVGALPATEIGQVVVKLKTAGYQVGFQAEDVWAFA, MGSDKIHHHHHHMESYYAVLDAMAAAPGDGVFAIIIDVEGSAYQKEGTWMWIEASGKTTGLLSGGCFEEAVAAHALDVLSNRQATSISFDLRAEDDWSWGQGAGCNGLVRIWLEPVTSNTKPDWLALKRCLDRGEHVFMARSITDPREQPFFQSETGERFGGYSSPPRPEWLKELHGTPFFRGRNGVYETEEDTFFIQHFWPKPRLTIFGAGPDAPPLVSAAKAAGFSVTVSDWRPAFCQPSHVPDADAWVVGFPHETIPKLHLTERDFVVIMTHQFERDRELMRWLADIPLAYLGVLGPRRRTDRLFPSGTAPPFVRSPIGLPIGARSPHEIAISITAELINVLRGGPMETAR, MGSDKIHHHHHHMETQNKPTVTDIDRPILVPPGGHKKVLLHSCCAPCSGEVMEAMLASGIDYTIYFYNPNIHPHKEYMLRKEENVRFAEKFGIPFIDKDDDYENDRKEWFAKAKGMEFEPERGIRCTMCFDMRFEKAAQYAHEHGFPVFTSSLGISRWKNMNQINDCGRRAAAPYDDVVYWDFNWRKGGGSARMIEISKRENFYQQEYCGCAYSLRDSNAHRKSQGRIPIKLGVLYYGDESTQYEPAPIRVDK, MGSDKIHHHHHHMEVEIVERNAFTAVGKKRTFSVENDAQKEKISQFWQEVNANGDAERINELAEFATIDGILGVCQMNGDQMDYYIAIESELTPPADMEKLTIPASKWAIFKSVGPLPNAIQKVWEYIYGEWFQTCNYTHGNAPELEVYTEGDTTAVDYYSEVWIPVVEKD, MGSDKIHHHHHHMEVFVLGCAGSGKSTFVRSFSEFLQERGYSVKCVNLDPASDPAYRADKNVREFVKTENVMVEYGLGVNGALIKSVEIASEHAEELKAEGDFVLYDTPGQLELFIYSEAGRKFVRELSGSFSCSLFLVDLTTVTDPESLLSAIMQDVIVSLRLSLPTLTAFTKSDVADVDVRSLLGEIKHREGVLAELMEKLVDFIELTTIPYRPIKISNIKKTGYEELFSALYELFCAAET, MGSDKIHHHHHHMFDDADDIDTETVEEWEASAEFGLLYTSGNTETESLKGKFTASRDVQNWRHKGVFDYYTSEQKDQDTGEMNETADRIFISAQSNYKFDPDSRDSLFVFGSYEEDEFSGFAYQATVATGYGARYRYDEDIYADYEIGPGYSRTKPVQVEGEPPVESDGSMILRLAGSLNWKISENSRFSALLSSEVGEDNTKSKAELSVSANINSALAMKVSLGANHNSHVADESIEKLDTETAVTLVYSF, MGSDKIHHHHHHMFDWENVRHFLAVARIGTLSGAARSLKVDHATVSRRLSALEDEIKTRLIERLPRACKLTLIGQRVFELAQGMEEDAYAIERFVDASRSPLSGKVSLSAPPVLVAHFLAKHLADFRRVHPGVQLSVSGEARQISLSRREADVALRLVRPEEGTSVVRKLGRMSFDLYASRDYPHLHNPSAWEFISYDAGFTDMPQQKWLMSVARGRPIACEISDINGHLAATQAGAGVAGLPDFLADTDAKLQRVAYDGEPFSRDIWLAVHRDLRRSPHVRAVMDFLLKIVKENPAFTISG, MGSDKIHHHHHHMFIDKQTVERHFSKSAHLYDGVNHVQRKMAHRLVQLLDEKRRDAKDEPRAILDIGCGTGWLTRECLKSFPQATIDAVDLSKQMLEVAEKNVSSHPNVQFIQGDIEKMVREKPSAKTYDVIVANAVFQWLDKPTETVAQLRSWLKPNGLLLFSTFGPDTFYELHDSFQLAAKQLGIIDERRGLDYLSKTEWKRTLDGLFAELTIHEEKAIESYATVEQFLHTVKKMGATYSQSSRPLSKRYYQLMKEIYEQRYRTEDSIPATYDCLYVLCQA, MGSDKIHHHHHHMFKKVAADVLGLSDVGSVITPKDYDKVDADDYVMHEDGEKIYFLIKSKSDEYCFTNKGLLHLDGTSATSKKRTLRRFSYSKYQIKNVALETAGTIDLDVEIKFQMGDEHYSIDVHKKHIEELKDLYKALLKIEEISYDNDITLQYAHKSLDMASNAFSRISNAQVNLAEQFKEMNEIAFNWLVDTKKQYNVKDYGFVFEKFINN, MGSDKIHHHHHHMFKLIIVEDEHLIRKWLEIAVDYSALGIQVVGTASHGQEGMKLIQEKEPHIVLTDITMPIMDAFMMFEATRTLSYEKVILSGYNDFQNAKKAMQYGAVDFLSKPIDTKELTECLQKIVLRLRVSTRQETPFLEEYQTLLTSIQQIDTQNQIIQQILEFVHQHYCMHFTISSIAENLGYSESYLYKVIKEDFPMTLNEYILRYRLKQAIDKMAESPNSPLSDISEQIGFSDYKYFAKVFKKYLHISPKELKLMDKNH
